{"source": "patent US20100249372A1", "about": "(WISCONSIN ALUMNI RESEARCH FOUNDATION, published 2010)", "binders": {"B1": {"name": "GST-tagged 4th luminal domain (L4) of rat SV2B (other)", "chain": "FPDMIRYFQDEEYKSKMKVFFGEHVHGATINFTMENQIHQHGKLVNDKFIKMYFKHVLFEDTFFDKCYFEDVTSTDTYFKNCTIESTTFYNTDLYKHKFIDCRFINSTFLEQKEGCHMDFEEDNDF"}, "B2": {"name": "GST-tagged 4th luminal domain (L4) of rat SV2C (other)", "chain": "FPDVIKHLQSDEYALLTRNVQKDKYANFSINFTMENQVHTGMEYDNGRFLGVKFKSVTFKDSVFKSCTFDDVTSVNTYFKNCTFIDTLFENTDFEPYKFIDSEFQNCSFLHNKTGCQITFDDDYSAY"}, "B3": {"name": "synaptotagmin I (other)", "chain": "MVSASHPEALAAPVTTVATLVPHNATEPASPGEGKEDAFSKLKQKFMNELHKIPLPPWALIAIAIVAVLLVVTCCFCVCKKCLFKKKNKKKGKEKGGKNAINMKDVKDLGKTMKDQALKDDDAETGLTDGEEKEEPKEEEKLGKLQYSLDYDFQNNQLLVGIIQAAELPALDMGGTSDPYVKVFLLPDKKKKFETKVHRKTLNPVFNEQFTFKVPYSELGGKTLVMAVYDFDRFSKHDIIGEFKVPMNTVDFGHVTEEWRDLQSAEKEEQEKLGDICFSLRYVPTAGKLTVVILEAKNLKKMDVGGLSDPYVKIHLMQNGKRLKKKKTTIKKNTLNPYYNESFSFEVPFEQIQKVQVVVTVLDYDKIGKNDAIGKVFVGYNSTGAELRHWSDMLANPRRPIAQWHTLQVEEEVDAMLAVKK"}, "B4": {"name": "GST-tagged 4th luminal domain (L4) of rat SV2A (other)", "chain": "FPDMIRHLQAVDYAARTKVFPGERVEHVTFNFTLENQIHRGGQYFNDKFIGLRLKSVSFEDSLFEECYFEDVTSSNTFFRNCTFINTVFYNTDLFEYKFVNSRLVNSTFLHNKEGCPLDVTGTGEGAY"}}, "key": {"Botulinum neurotoxin B": {"biological_target": "T1, Botulinum neurotoxin B (Clostridium botulinum, UniProt P10844 2-1291)", "T1 sequence": "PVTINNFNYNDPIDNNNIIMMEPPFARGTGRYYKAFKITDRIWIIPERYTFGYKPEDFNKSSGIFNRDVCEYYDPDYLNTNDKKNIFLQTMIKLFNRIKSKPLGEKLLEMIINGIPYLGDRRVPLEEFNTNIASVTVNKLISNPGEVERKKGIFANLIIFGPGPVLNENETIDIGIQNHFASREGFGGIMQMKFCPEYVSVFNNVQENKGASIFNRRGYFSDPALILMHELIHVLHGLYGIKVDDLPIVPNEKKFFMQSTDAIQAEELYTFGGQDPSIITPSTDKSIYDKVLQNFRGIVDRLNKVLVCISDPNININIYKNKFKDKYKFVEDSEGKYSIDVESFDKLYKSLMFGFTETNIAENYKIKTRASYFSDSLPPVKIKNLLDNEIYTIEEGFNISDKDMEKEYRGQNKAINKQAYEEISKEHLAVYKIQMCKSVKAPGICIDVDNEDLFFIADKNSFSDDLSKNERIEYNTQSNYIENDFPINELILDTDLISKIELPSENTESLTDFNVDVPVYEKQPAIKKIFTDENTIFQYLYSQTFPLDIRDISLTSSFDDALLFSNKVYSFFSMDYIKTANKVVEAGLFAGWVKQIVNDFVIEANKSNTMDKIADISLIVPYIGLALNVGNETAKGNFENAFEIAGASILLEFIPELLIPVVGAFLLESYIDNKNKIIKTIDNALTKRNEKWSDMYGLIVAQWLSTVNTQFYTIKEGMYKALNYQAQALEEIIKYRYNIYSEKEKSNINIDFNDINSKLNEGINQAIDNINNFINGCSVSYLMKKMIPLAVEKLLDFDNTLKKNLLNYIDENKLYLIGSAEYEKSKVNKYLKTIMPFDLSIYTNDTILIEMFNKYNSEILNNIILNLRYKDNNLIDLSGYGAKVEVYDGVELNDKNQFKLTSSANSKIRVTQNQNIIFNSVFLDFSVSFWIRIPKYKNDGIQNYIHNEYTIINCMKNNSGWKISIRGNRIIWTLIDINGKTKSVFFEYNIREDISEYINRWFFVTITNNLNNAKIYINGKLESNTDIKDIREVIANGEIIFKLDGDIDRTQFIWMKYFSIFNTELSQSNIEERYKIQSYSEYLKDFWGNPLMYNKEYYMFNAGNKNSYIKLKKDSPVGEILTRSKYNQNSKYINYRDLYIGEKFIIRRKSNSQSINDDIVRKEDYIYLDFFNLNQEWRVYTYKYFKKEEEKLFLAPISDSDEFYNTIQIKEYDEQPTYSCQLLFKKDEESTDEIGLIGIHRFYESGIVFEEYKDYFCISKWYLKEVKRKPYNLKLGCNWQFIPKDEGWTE", "test": "pull-down with immobilised GST-L4 (8 µg), western blot"}, "Botulinum neurotoxin E": {"biological_target": "T2, Botulinum neurotoxin E (Clostridium botulinum, UniProt Q00496 2-1251)", "T2 sequence": "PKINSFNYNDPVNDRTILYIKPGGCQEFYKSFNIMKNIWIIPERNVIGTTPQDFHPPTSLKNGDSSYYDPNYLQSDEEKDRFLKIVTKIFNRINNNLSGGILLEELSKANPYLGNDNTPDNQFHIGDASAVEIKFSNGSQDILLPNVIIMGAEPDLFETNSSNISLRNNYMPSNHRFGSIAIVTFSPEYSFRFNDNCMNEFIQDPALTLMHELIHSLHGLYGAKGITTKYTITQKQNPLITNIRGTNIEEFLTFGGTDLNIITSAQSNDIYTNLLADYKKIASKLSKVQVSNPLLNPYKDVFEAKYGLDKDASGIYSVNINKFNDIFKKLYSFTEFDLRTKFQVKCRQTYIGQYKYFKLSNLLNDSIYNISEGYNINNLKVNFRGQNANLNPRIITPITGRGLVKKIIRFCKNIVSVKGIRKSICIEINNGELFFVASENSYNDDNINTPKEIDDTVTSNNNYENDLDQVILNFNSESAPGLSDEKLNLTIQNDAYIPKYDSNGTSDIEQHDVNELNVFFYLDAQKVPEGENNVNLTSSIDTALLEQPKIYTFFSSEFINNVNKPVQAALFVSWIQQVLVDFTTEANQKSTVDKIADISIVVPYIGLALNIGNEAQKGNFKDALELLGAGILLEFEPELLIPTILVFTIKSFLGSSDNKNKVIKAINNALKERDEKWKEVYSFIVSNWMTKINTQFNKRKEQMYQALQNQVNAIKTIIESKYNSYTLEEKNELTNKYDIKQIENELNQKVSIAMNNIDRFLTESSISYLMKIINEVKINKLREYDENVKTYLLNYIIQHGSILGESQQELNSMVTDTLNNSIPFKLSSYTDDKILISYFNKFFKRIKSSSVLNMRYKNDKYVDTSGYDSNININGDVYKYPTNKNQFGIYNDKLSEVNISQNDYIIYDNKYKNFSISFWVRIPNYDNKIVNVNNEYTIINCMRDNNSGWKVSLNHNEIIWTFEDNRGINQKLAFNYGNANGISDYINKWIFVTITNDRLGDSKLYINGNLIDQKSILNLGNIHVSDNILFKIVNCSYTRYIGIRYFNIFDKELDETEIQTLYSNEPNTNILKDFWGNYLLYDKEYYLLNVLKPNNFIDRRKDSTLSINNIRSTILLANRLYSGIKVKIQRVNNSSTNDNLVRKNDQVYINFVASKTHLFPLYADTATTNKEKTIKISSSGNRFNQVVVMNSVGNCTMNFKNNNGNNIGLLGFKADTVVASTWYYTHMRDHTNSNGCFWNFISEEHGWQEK", "test": "pull-down with immobilised GST-L4 (8 µg), western blot"}, "Botulinum neurotoxin A": {"biological_target": "Botulinum neurotoxin A (Clostridium botulinum, UniProt P0DPI1 2-1296)", "test": "immunostaining of transfected SV2A/B double knockout hippocampal neurons"}}, "data": [{"binder": "B1", "values": [{"measurement": "binding result", "setting": "Botulinum neurotoxin B", "result": "no binding (tested: 100 nM)"}, {"measurement": "binding result", "setting": "Botulinum neurotoxin E", "result": "no binding (tested: 100 nM)"}]}, {"binder": "B2", "values": [{"measurement": "binding result", "setting": "Botulinum neurotoxin B", "result": "no binding (tested: 100 nM)"}, {"measurement": "binding result", "setting": "Botulinum neurotoxin E", "result": "no binding (tested: 100 nM)"}]}, {"binder": "B3", "values": [{"measurement": "binding result", "setting": "Botulinum neurotoxin A", "result": "no binding (tested: 10 nM)"}]}, {"binder": "B4", "values": [{"measurement": "binding result", "setting": "Botulinum neurotoxin B", "result": "no binding (tested: 100 nM)"}, {"measurement": "binding result", "setting": "Botulinum neurotoxin E", "result": "no binding (tested: 100 nM)"}]}]}
